This note sets out measurements from patent US20140087995A1 (published 2014).

Numbered stars: 1 amine (or outer) side, 2 acyl side, 3 side chain; on linkers, the order of the positions; unused ones are H or OH. Bridge positions count the residues as written; N and C are the ends. Side chains are listed from the residue outwards. Ends that are not written are not given here. * marks the point of attachment. C20 diacid = O=C(O)CCCCCCCCCCCCCCCCCCC(=O)*; γGlu = O=C(O)[C@H](CCC(=O)[*:2])N[*:1]

B1: N^ε1-[(4S)-4-carboxy-4-(19-carboxynonadecanoylamino)butanoyl]-[Arg17,Pro21,Pro27,Glu35]-h-amylin (peptide)
peptide: K([γGlu-C20 diacid])CNTATCATQRLANFLRHSSPNFGAIPSSTNVGSETY-NH2
modifications: disulfide 2-7; N-terminus assumed
SMILES: CC[C@H](C)[C@H](NC(=O)[C@H](C)NC(=O)CNC(=O)[C@H](Cc1ccccc1)NC(=O)[C@H](CC(N)=O)NC(=O)[C@@H]1CCCN1C(=O)[C@H](CO)NC(=O)[C@H](CO)NC(=O)[C@H](Cc1c[nH]cn1)NC(=O)[C@H](CCCNC(=N)N)NC(=O)[C@H](CC(C)C)NC(=O)[C@H](Cc1ccccc1)NC(=O)[C@H](CC(N)=O)NC(=O)[C@H](C)NC(=O)[C@H](CC(C)C)NC(=O)[C@H](CCCNC(=N)N)NC(=O)[C@H](CCC(N)=O)NC(=O)[C@@H](NC(=O)[C@H](C)NC(=O)[C@@H]1CSSC[C@H](NC(=O)[C@@H](N)CCCCNC(=O)CC[C@H](NC(=O)CCCCCCCCCCCCCCCCCCC(=O)O)C(=O)O)C(=O)N[C@@H](CC(N)=O)C(=O)N[C@@H]([C@@H](C)O)C(=O)N[C@@H](C)C(=O)N[C@@H]([C@@H](C)O)C(=O)N1)[C@@H](C)O)C(=O)N1CCC[C@H]1C(=O)N[C@@H](CO)C(=O)N[C@@H](CO)C(=O)N[C@H](C(=O)N[C@@H](CC(N)=O)C(=O)N[C@H](C(=O)NCC(=O)N[C@@H](CO)C(=O)N[C@@H](CCC(=O)O)C(=O)N[C@H](C(=O)N[C@@H](Cc1ccc(O)cc1)C(N)=O)[C@@H](C)O)C(C)C)[C@@H](C)O
notes: also called compound 27
B2: N^ε1-[(4S)-4-carboxy-4-(19-carboxynonadecanoylamino)butanoyl]-[His14,Arg17,Pro21,Pro27,His35]-h-amylin (peptide)
peptide: K([γGlu-C20 diacid])CNTATCATQRLAHFLRHSSPNFGAIPSSTNVGSHTY-NH2
modifications: disulfide 2-7; N-terminus assumed
SMILES: CC[C@H](C)[C@H](NC(=O)[C@H](C)NC(=O)CNC(=O)[C@H](Cc1ccccc1)NC(=O)[C@H](CC(N)=O)NC(=O)[C@@H]1CCCN1C(=O)[C@H](CO)NC(=O)[C@H](CO)NC(=O)[C@H](Cc1c[nH]cn1)NC(=O)[C@H](CCCNC(=N)N)NC(=O)[C@H](CC(C)C)NC(=O)[C@H](Cc1ccccc1)NC(=O)[C@H](Cc1c[nH]cn1)NC(=O)[C@H](C)NC(=O)[C@H](CC(C)C)NC(=O)[C@H](CCCNC(=N)N)NC(=O)[C@H](CCC(N)=O)NC(=O)[C@@H](NC(=O)[C@H](C)NC(=O)[C@@H]1CSSC[C@H](NC(=O)[C@@H](N)CCCCNC(=O)CC[C@H](NC(=O)CCCCCCCCCCCCCCCCCCC(=O)O)C(=O)O)C(=O)N[C@@H](CC(N)=O)C(=O)N[C@@H]([C@@H](C)O)C(=O)N[C@@H](C)C(=O)N[C@@H]([C@@H](C)O)C(=O)N1)[C@@H](C)O)C(=O)N1CCC[C@H]1C(=O)N[C@@H](CO)C(=O)N[C@@H](CO)C(=O)N[C@H](C(=O)N[C@@H](CC(N)=O)C(=O)N[C@H](C(=O)NCC(=O)N[C@@H](CO)C(=O)N[C@@H](Cc1c[nH]cn1)C(=O)N[C@H](C(=O)N[C@@H](Cc1ccc(O)cc1)C(N)=O)[C@@H](C)O)C(C)C)[C@@H](C)O
notes: also called compound 66
B3: N^ε1-[(4S)-4-carboxy-4-(19-carboxynonadecanoylamino)butanoyl]-[Arg17,Pro21,Pro27,Lys35]-h-amylin (peptide)
peptide: K([γGlu-C20 diacid])CNTATCATQRLANFLRHSSPNFGAIPSSTNVGSKTY-NH2
modifications: disulfide 2-7; N-terminus assumed
SMILES: CC[C@H](C)[C@H](NC(=O)[C@H](C)NC(=O)CNC(=O)[C@H](Cc1ccccc1)NC(=O)[C@H](CC(N)=O)NC(=O)[C@@H]1CCCN1C(=O)[C@H](CO)NC(=O)[C@H](CO)NC(=O)[C@H](Cc1c[nH]cn1)NC(=O)[C@H](CCCNC(=N)N)NC(=O)[C@H](CC(C)C)NC(=O)[C@H](Cc1ccccc1)NC(=O)[C@H](CC(N)=O)NC(=O)[C@H](C)NC(=O)[C@H](CC(C)C)NC(=O)[C@H](CCCNC(=N)N)NC(=O)[C@H](CCC(N)=O)NC(=O)[C@@H](NC(=O)[C@H](C)NC(=O)[C@@H]1CSSC[C@H](NC(=O)[C@@H](N)CCCCNC(=O)CC[C@H](NC(=O)CCCCCCCCCCCCCCCCCCC(=O)O)C(=O)O)C(=O)N[C@@H](CC(N)=O)C(=O)N[C@@H]([C@@H](C)O)C(=O)N[C@@H](C)C(=O)N[C@@H]([C@@H](C)O)C(=O)N1)[C@@H](C)O)C(=O)N1CCC[C@H]1C(=O)N[C@@H](CO)C(=O)N[C@@H](CO)C(=O)N[C@H](C(=O)N[C@@H](CC(N)=O)C(=O)N[C@H](C(=O)NCC(=O)N[C@@H](CO)C(=O)N[C@@H](CCCCN)C(=O)N[C@H](C(=O)N[C@@H](Cc1ccc(O)cc1)C(N)=O)[C@@H](C)O)C(C)C)[C@@H](C)O
notes: also called compound 35
B4: N^ε1-[(4S)-4-carboxy-4-(19-carboxynonadecanoylamino)butanoyl]-[Arg17,Pro21,Pro27,His35]-h-amylin (peptide)
peptide: K([γGlu-C20 diacid])CNTATCATQRLANFLRHSSPNFGAIPSSTNVGSHTY-NH2
modifications: disulfide 2-7; N-terminus assumed
SMILES: CC[C@H](C)[C@H](NC(=O)[C@H](C)NC(=O)CNC(=O)[C@H](Cc1ccccc1)NC(=O)[C@H](CC(N)=O)NC(=O)[C@@H]1CCCN1C(=O)[C@H](CO)NC(=O)[C@H](CO)NC(=O)[C@H](Cc1c[nH]cn1)NC(=O)[C@H](CCCNC(=N)N)NC(=O)[C@H](CC(C)C)NC(=O)[C@H](Cc1ccccc1)NC(=O)[C@H](CC(N)=O)NC(=O)[C@H](C)NC(=O)[C@H](CC(C)C)NC(=O)[C@H](CCCNC(=N)N)NC(=O)[C@H](CCC(N)=O)NC(=O)[C@@H](NC(=O)[C@H](C)NC(=O)[C@@H]1CSSC[C@H](NC(=O)[C@@H](N)CCCCNC(=O)CC[C@H](NC(=O)CCCCCCCCCCCCCCCCCCC(=O)O)C(=O)O)C(=O)N[C@@H](CC(N)=O)C(=O)N[C@@H]([C@@H](C)O)C(=O)N[C@@H](C)C(=O)N[C@@H]([C@@H](C)O)C(=O)N1)[C@@H](C)O)C(=O)N1CCC[C@H]1C(=O)N[C@@H](CO)C(=O)N[C@@H](CO)C(=O)N[C@H](C(=O)N[C@@H](CC(N)=O)C(=O)N[C@H](C(=O)NCC(=O)N[C@@H](CO)C(=O)N[C@@H](Cc1c[nH]cn1)C(=O)N[C@H](C(=O)N[C@@H](Cc1ccc(O)cc1)C(N)=O)[C@@H](C)O)C(C)C)[C@@H](C)O
notes: also called compound 60
B5: N^ε1-[(4S)-4-carboxy-4-(19-carboxynonadecanoylamino)butanoyl]-[Arg17,Pro21,Pro27,His34]-h-amylin (peptide)
peptide: K([γGlu-C20 diacid])CNTATCATQRLANFLRHSSPNFGAIPSSTNVGHNTY-NH2
modifications: disulfide 2-7; N-terminus assumed
SMILES: CC[C@H](C)[C@H](NC(=O)[C@H](C)NC(=O)CNC(=O)[C@H](Cc1ccccc1)NC(=O)[C@H](CC(N)=O)NC(=O)[C@@H]1CCCN1C(=O)[C@H](CO)NC(=O)[C@H](CO)NC(=O)[C@H](Cc1c[nH]cn1)NC(=O)[C@H](CCCNC(=N)N)NC(=O)[C@H](CC(C)C)NC(=O)[C@H](Cc1ccccc1)NC(=O)[C@H](CC(N)=O)NC(=O)[C@H](C)NC(=O)[C@H](CC(C)C)NC(=O)[C@H](CCCNC(=N)N)NC(=O)[C@H](CCC(N)=O)NC(=O)[C@@H](NC(=O)[C@H](C)NC(=O)[C@@H]1CSSC[C@H](NC(=O)[C@@H](N)CCCCNC(=O)CC[C@H](NC(=O)CCCCCCCCCCCCCCCCCCC(=O)O)C(=O)O)C(=O)N[C@@H](CC(N)=O)C(=O)N[C@@H]([C@@H](C)O)C(=O)N[C@@H](C)C(=O)N[C@@H]([C@@H](C)O)C(=O)N1)[C@@H](C)O)C(=O)N1CCC[C@H]1C(=O)N[C@@H](CO)C(=O)N[C@@H](CO)C(=O)N[C@H](C(=O)N[C@@H](CC(N)=O)C(=O)N[C@H](C(=O)NCC(=O)N[C@@H](Cc1c[nH]cn1)C(=O)N[C@@H](CC(N)=O)C(=O)N[C@H](C(=O)N[C@@H](Cc1ccc(O)cc1)C(N)=O)[C@@H](C)O)C(C)C)[C@@H](C)O
notes: also called compound 77
B6: N^ε1-[(4S)-4-carboxy-4-(19-carboxynonadecanoylamino)butanoyl]-[His14,Arg17,Pro21,Pro27,Arg34]-h-amylin (peptide)
peptide: K([γGlu-C20 diacid])CNTATCATQRLAHFLRHSSPNFGAIPSSTNVGRNTY-NH2
modifications: disulfide 2-7; N-terminus assumed
SMILES: CC[C@H](C)[C@H](NC(=O)[C@H](C)NC(=O)CNC(=O)[C@H](Cc1ccccc1)NC(=O)[C@H](CC(N)=O)NC(=O)[C@@H]1CCCN1C(=O)[C@H](CO)NC(=O)[C@H](CO)NC(=O)[C@H](Cc1c[nH]cn1)NC(=O)[C@H](CCCNC(=N)N)NC(=O)[C@H](CC(C)C)NC(=O)[C@H](Cc1ccccc1)NC(=O)[C@H](Cc1c[nH]cn1)NC(=O)[C@H](C)NC(=O)[C@H](CC(C)C)NC(=O)[C@H](CCCNC(=N)N)NC(=O)[C@H](CCC(N)=O)NC(=O)[C@@H](NC(=O)[C@H](C)NC(=O)[C@@H]1CSSC[C@H](NC(=O)[C@@H](N)CCCCNC(=O)CC[C@H](NC(=O)CCCCCCCCCCCCCCCCCCC(=O)O)C(=O)O)C(=O)N[C@@H](CC(N)=O)C(=O)N[C@@H]([C@@H](C)O)C(=O)N[C@@H](C)C(=O)N[C@@H]([C@@H](C)O)C(=O)N1)[C@@H](C)O)C(=O)N1CCC[C@H]1C(=O)N[C@@H](CO)C(=O)N[C@@H](CO)C(=O)N[C@H](C(=O)N[C@@H](CC(N)=O)C(=O)N[C@H](C(=O)NCC(=O)N[C@@H](CCCNC(=N)N)C(=O)N[C@@H](CC(N)=O)C(=O)N[C@H](C(=O)N[C@@H](Cc1ccc(O)cc1)C(N)=O)[C@@H](C)O)C(C)C)[C@@H](C)O
notes: also called compound 85

The assay has as its target T1, human amylin 3(a) receptor (human calcitonin receptor co-expressed with RAMP-3) (human, UniProt P30988 25-474; O60896 24-148, limits assumed).
T1 sequence (looked up) 1: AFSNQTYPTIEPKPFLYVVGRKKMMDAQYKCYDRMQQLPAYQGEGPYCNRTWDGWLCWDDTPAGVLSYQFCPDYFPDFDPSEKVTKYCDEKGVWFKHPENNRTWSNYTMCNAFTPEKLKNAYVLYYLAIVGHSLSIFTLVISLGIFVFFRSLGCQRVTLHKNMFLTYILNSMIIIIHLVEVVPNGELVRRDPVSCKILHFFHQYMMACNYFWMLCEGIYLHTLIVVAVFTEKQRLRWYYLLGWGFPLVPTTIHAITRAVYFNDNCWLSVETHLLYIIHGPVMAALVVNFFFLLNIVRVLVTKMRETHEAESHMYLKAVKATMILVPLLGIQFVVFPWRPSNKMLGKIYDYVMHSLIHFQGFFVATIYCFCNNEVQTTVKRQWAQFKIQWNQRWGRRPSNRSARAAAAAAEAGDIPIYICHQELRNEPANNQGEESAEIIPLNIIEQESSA
T1 sequence (looked up) 2: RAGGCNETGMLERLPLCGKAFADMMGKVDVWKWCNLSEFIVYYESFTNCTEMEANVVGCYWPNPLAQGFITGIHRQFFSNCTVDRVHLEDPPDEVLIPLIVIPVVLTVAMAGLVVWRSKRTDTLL
The experiment in a line: cell-based or functional assay.
In the case of B1, the “Ratio hCT/hAmylin funct. (hCTR EC50 over hAmylin-R EC50)” value was found to be 22.6 and the “hAmylin-R funct. EC50 (pM)” value was found to be 133 pM.
With B2, the “Ratio hCT/hAmylin funct. (hCTR EC50 over hAmylin-R EC50)” value was determined as 20.1 and the “hAmylin-R funct. EC50 (pM)” value was 27 pM.
As to B3, the “Ratio hCT/hAmylin funct. (hCTR EC50 over hAmylin-R EC50)” value was 15 and the “hAmylin-R funct. EC50 (pM)” value came out at 364 pM.
For B4 the same measures were 15.3 and 351 pM.
For B5 the same measures were 37.3 and 145 pM.
B6: the “Ratio hCT/hAmylin funct. (hCTR EC50 over hAmylin-R EC50)” value came to 26.6 and the “hAmylin-R funct. EC50 (pM)” value was determined as 146 pM.
